B1: CD19 BRIDGE variant B16 (Fab)
heavy: EVQLVESGGGLVKPGGSLKLSCAASGYTFTSYVMHWVRQAPGKGLEWIGYINPYNDGTKYNEKFQGRVTISSDKSISTAYMELSSLRSEDTAMYYCARGTYYYGTRVFDYWGQGTLVTVSSASTKGPSVFPLAPSSKSTSGGTAALGCLVKDYFPEPVTVSWNSGALTSGVHTFPAVLQSSGLYSLSSVVTVPSSSLGTQTYICNVNHKPSNTKVDKKVEPKSCHHHHHH
light: GHNYTTRNILPGLNITSTFHKTSGSGKEPKSSDKTHTGGGGSDIVMTQSPATLSLSPGERATLSCRSSKSLQNVNGNTYLYWFQQKPGQSPQLLIYRMSNLNSGVPDRFSGSGSGTEFTLTISSLEPEDFAVYYCMQHLEYPITFGAGTKLEIKRTVAAPSVFIFPPSDEQLKSGTASVVCLLNNFYPREAKVQWKVDNALQSGNSQESVTEQDSKDSTYSLSSTLTLSKADYEKHKVYACEVTHQGLSSPVTKSFNRGEC
B2: CD19 BRIDGE variant B18 (Fab)
heavy: B1 heavy
light: GHNYTTRNILPGLNITSTFHKTSGSGKGGGGSEPKSSDKTHTGGGGSDIVMTQSPATLSLSPGERATLSCRSSKSLQNVNGNTYLYWFQQKPGQSPQLLIYRMSNLNSGVPDRFSGSGSGTEFTLTISSLEPEDFAVYYCMQHLEYPITFGAGTKLEIKRTVAAPSVFIFPPSDEQLKSGTASVVCLLNNFYPREAKVQWKVDNALQSGNSQESVTEQDSKDSTYSLSSTLTLSKADYEKHKVYACEVTHQGLSSPVTKSFNRGEC
B3: CD19 BRIDGE variant B22 (Fab)
heavy: B1 heavy
light: DFPGHNYTTRNILPGLNITSTFHKTSGSGKEPKSSDKTHTDIVMTQSPATLSLSPGERATLSCRSSKSLQNVNGNTYLYWFQQKPGQSPQLLIYRMSNLNSGVPDRFSGSGSGTEFTLTISSLEPEDFAVYYCMQHLEYPITFGAGTKLEIKRTVAAPSVFIFPPSDEQLKSGTASVVCLLNNFYPREAKVQWKVDNALQSGNSQESVTEQDSKDSTYSLSSTLTLSKADYEKHKVYACEVTHQGLSSPVTKSFNRGEC
B4: CD19 BRIDGE variant B17 (Fab)
heavy: B1 heavy
light: GHNYTTRNILPGLNITSTFHKTSGSGKGSEPKSSDKTHTGGGGSDIVMTQSPATLSLSPGERATLSCRSSKSLQNVNGNTYLYWFQQKPGQSPQLLIYRMSNLNSGVPDRFSGSGSGTEFTLTISSLEPEDFAVYYCMQHLEYPITFGAGTKLEIKRTVAAPSVFIFPPSDEQLKSGTASVVCLLNNFYPREAKVQWKVDNALQSGNSQESVTEQDSKDSTYSLSSTLTLSKADYEKHKVYACEVTHQGLSSPVTKSFNRGEC
B5: CD19 BRIDGE variant B21 (Fab)
heavy: B1 heavy
light: DFPGHNYTTRNILPGLNITSGGGGSEPKSSDKTHTDIVMTQSPATLSLSPGERATLSCRSSKSLQNVNGNTYLYWFQQKPGQSPQLLIYRMSNLNSGVPDRFSGSGSGTEFTLTISSLEPEDFAVYYCMQHLEYPITFGAGTKLEIKRTVAAPSVFIFPPSDEQLKSGTASVVCLLNNFYPREAKVQWKVDNALQSGNSQESVTEQDSKDSTYSLSSTLTLSKADYEKHKVYACEVTHQGLSSPVTKSFNRGEC
B6: CD19 BRIDGE variant B19 (Fab, V domains shown)
VH: EVQLVESGGGLVKPGGSLKLSCAASGYTFTSYVMHWVRQAPGKGLEWIGYINPYNDGTKYNEKFQGRVTISSDKSISTAYMELSSLRSEDTAMYYCARGTYYYGTRVFDYWGQGTLVTVSS
VL: DIVMTQSPATLSLSPGERATLSCRSSKSLQNVNGNTYLYWFQQKPGQSPQLLIYRMSNLNSGVPDRFSGSGSGTEFTLTISSLEPEDFAVYYCMQHLEYPITFGAGTKLEIKR
B7: CD19 BRIDGE variant B20 (Fab, V domains shown)
VH: B6 VH
VL: B6 VL
B8: CD19 BRIDGE variant B25 (Fab, V domains shown)
VH: B6 VH
VL: B6 VL

These binders were tested against T1, CD19 (UniProt P15391 20-556, limits assumed) (assay: flow cytometry, JeKo-1 cells, BIL03s-AF647 detection, MFI over no-bridge control).
T1 construct: whole, on cells; also called CD19 on JeKo-1
T1 sequence (looked up): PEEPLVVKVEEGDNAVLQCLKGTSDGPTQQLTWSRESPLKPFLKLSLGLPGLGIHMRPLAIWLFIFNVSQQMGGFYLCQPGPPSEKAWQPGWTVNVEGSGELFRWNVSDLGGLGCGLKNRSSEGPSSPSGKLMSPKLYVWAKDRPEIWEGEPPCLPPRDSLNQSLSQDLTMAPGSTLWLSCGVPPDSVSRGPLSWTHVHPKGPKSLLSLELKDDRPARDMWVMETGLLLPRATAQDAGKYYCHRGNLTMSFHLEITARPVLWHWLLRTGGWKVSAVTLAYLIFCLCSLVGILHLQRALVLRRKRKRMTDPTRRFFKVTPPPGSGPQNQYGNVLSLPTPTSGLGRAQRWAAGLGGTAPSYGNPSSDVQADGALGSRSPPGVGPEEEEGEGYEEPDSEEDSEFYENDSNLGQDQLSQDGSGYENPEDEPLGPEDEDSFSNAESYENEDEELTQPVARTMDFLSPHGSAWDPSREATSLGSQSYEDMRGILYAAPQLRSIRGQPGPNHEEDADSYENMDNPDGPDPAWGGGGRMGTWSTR
Experimental: (§1) JeKo-1 cells were incubated with different CD19 BRiDGE variants at saturating concentrations. […] The MFI intensity correlates with the number of secondary bound antibodies bound to the CD19 BRiDGE variants that are only detected if they are bound to the JeKo-1 cells. MFI: median fluorescence intensity. BLitz: Bio-Layer interferometry (BLI) technology using HIS-tag identification tips. […] The higher the MFIR, the stronger the binding.

Binder	MFIR BIL03 AF647
B1	17.6
B2	23.7
B3	10.5
B4	20.2
B5	8.83
B6	10.7
B7	9.07
B8	10.9

Each binder was assayed against T2, nfP2X7 CAR 1 (assay: flow cytometry, anti-His-FITC, MFI on EGFR+ (CAR+) over EGFR- (CAR-) T cells).
T2 construct: CAR-positive cells gated by the co-expressed EGFR marker; also called nfP2X7 targeted CAR; nfP2X7 CAR on EGFR+ T cells
Experimental: (§2) nfP2X₇ CAR T cells were incubated with different BRiDGE variants at saturating concentrations. […] The MFI intensity correlates with the number of secondary bound antibodies bound to the BRiDGEs that are only detected if they are bound to the CAR T cells. EGFR was used as a marker gene to detect the CAR expression. Thus, the EGFR+ T cell population was defined as the CAR expressing cells and the EGFR− T cell population was defined as the CAR negative subset. MFI: median fluorescence intensity. EGFR: epidermal growth factor receptor. BLItz: Bio-Layer interferometry (BLI) technology using HIS-tag identification tips. HIS-tag MFI Ratio: relative index that is calculated by the testing condition MFI divided by the control MFI, which corresponds to the MFI measured on EGFR+ T cells (defined as CAR positive cells) divided by the MFI measured on the EGFR− T cells (defined as CAR negative cells). […] The higher the MFIR, the stronger the binding.

Binder	HisTag MFI Ratio of EGFR+/EGFR-
B1	4.6
B2	4.2
B3	4
B4	4.2
B5	4.1
B6	4.1
B7	4.1
B8	4

What follows are binders tested against T2, nfP2X7 CAR 1 (assay: flow cytometry, anti-His-FITC, MFI on EGFR+ (CAR+) T cells over background 0.44).
Experimental: as §2

Binder	HisTag MFI Ratio (background 0.44)
B1	5.3
B2	5.1
B3	5
B4	5.1
B5	5
B6	4.9
B7	4.8
B8	5.2

Each binder was assayed against T1, CD19 (assay: flow cytometry, JeKo-1 cells, bridge at saturating conc., anti-His-FITC detection).
Experimental: as §1

Binder	MFI HisTag FITC
B1	2.86
B2	3.03
B3	2.54
B4	2.98
B5	2.56
B6	2.7
B7	2.61
B8	2.32

What follows are binders tested against T2, nfP2X7 CAR 1 (assay: flow cytometry, nfP2X7 CAR 1 T cells (EGFR+ gate), anti-His-FITC detection).
Experimental: as §2

Binder	MFI HisTag FITC in EGFR+ Population
B1	2.34
B2	2.25
B3	2.21
B4	2.25
B5	2.19
B6	2.16
B7	2.11
B8	2.28

These binders were tested against T1, CD19 (assay: flow cytometry, JeKo-1 cells, anti-His-FITC detection, MFI over no-bridge control).
Experimental: as §1

Binder	MFIR HisTag FITC
B1	3.71
B2	3.94
B3	3.3
B4	3.87
B5	3.32
B6	3.51
B7	3.39
B8	3.01

The binders below were run against T1, CD19 (assay: flow cytometry, JeKo-1 cells, bridge at saturating conc., BIL03s-AF647 detection).
Experimental: as §1

Binder	MFI Bil03 AF647
B1	8.08
B2	10.9
B3	4.85
B4	9.3
B5	4.06
B6	4.9
B7	4.17
B8	5
